B1: N-terminally GST-tagged human hnRNPA1 (natural protein, UniProt P09651-2 1-320, looked up)
chain: MSKSESPKEPEQLRKLFIGGLSFETTDESLRSHFEQWGTLTDCVVMRDPNTKRSRGFGFVTYATVEEVDAAMNARPHKVDGRVVEPKRAVSREDSQRPGAHLTVKKIFVGGIKEDTEEHHLRDYFEQYGKIEVIEIMTDRGSGKKRGFAFVTFDDHDSVDKIVIQKYHTVNGHNCEVRKALSKQEMASASSSQRGRSGSGNFGGGRGGGFGGNDNFGRGGNFSGRGGFGGSRGGGGYGGSGDGYNGFGNDGSNFGGGGSYNDFGNYNNQSSNFGPMKGGNFGGRSSGPYGGGGQYFAKPRNQGGYGGSSSSSSYGSGRRF
notes: human hnRNPA1; Prey of the Ni-NTA pull-down; The general purification method names only Ni-NTA and SEC; also called GST-hnRNPA1; source: E. coli, purified; not shown: GST, N-terminal, kept
B2: human hnRNPA1, full-length (residues 1 to 320), fluorescently labelled (natural protein, UniProt P09651-2 1-320, looked up)
chain: B1 chain
modifications: RED-NHS 2nd generation dye
notes: human hnRNPA1, full-length, residues 1 to 320 (320-residue form); Labelled protein of the MST titrations (5 nM); also called full length hnRNPA1; source: E. coli Rosetta (DE3), purified (Ni-NTA, SEC)

Columns and labels:
[1] = target: T1, SARS-CoV-2 nucleocapsid (N) protein, full-length, N-terminally 6xHis-tagged (SARS-CoV-2, UniProt P0DTC9 1-419); assay: pull-down; conditions: both partners purified
T1 construct: SARS-CoV-2 nucleocapsid (N) protein, full-length, residues 1 to 419 (419 amino acids); also called 6XHis-N protein; FL N protein; not shown: His6, N-terminal, kept

[2] = target: T1, SARS-CoV-2 nucleocapsid (N) protein, …; assay: MST; RED-NHS-labelled hnRNPA1 (5 nM) titrated with N protein, NTD, CTD or LKR+CTD; 16 two-fold dilutions from 100 μM; Monolith NT.115; single-site binding model; triplicates; conditions: both partners purified

Row | Binder | binding result [1] | Kd [2]
1 | B1 | binds | 
2 | B2 |  | ~180 nM
